Consider 2 substances from article PMC10952227.

Experiment [1] concerns the target Guanylyl cyclase-A (GC-A), human (human) (UniProt P16066).
For experiment [2] the target is unchanged. The experiment can be described thus: radioligand binding; whole GC-A-expressing QBIHEK293A cells; 50 pmol/L 125I-ANP with increasing concentrations of compound #20; DMEM with 1% BSA; 4°C, 1 h.

Chain of UniProt P16066 (P16066 33-473): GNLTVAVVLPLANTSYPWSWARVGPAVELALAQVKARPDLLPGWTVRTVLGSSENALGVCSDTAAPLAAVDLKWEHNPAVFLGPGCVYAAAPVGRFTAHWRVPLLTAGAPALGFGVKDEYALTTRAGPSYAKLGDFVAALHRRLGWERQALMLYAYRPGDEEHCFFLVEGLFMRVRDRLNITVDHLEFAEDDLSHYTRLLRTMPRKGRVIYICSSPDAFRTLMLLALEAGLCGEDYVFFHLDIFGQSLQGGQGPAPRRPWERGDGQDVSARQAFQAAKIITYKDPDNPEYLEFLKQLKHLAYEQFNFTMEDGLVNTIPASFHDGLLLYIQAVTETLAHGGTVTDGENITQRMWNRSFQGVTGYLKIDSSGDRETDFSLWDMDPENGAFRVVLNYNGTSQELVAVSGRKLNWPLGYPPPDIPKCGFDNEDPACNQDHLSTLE

With Brain natriuretic peptide (BNP), the cGMP production (AlphaScreen) in GC-A-expressing QBIHEK293A cells, concentration-response of human BNP without compound: EC50 in experiment [1] was found to be 1 nM. ^125I-ANP (peptide): in experiment [2], the increase of binding by increasing concentrations of compound #20 came out at 71%.
